# Reference: US20140087995A1 (published 2014)
# Numbered stars: 1 amine (or outer) side, 2 acyl side, 3 side chain; on linkers, the order of the positions; unused ones are H or OH. Bridge positions count the residues as written; N and C are the ends. Side chains are listed from the residue outwards. Ends that are not written are not given here. * marks the point of attachment. C20 diacid = O=C(O)CCCCCCCCCCCCCCCCCCC(=O)*; γGlu = O=C(O)[C@H](CCC(=O)[*:2])N[*:1]; AEEA = NCCOCCOCC(=O)O
# T1: rat calcitonin receptor (rat, UniProt P32214 25-516)
# T1 construct: whole, on cells; Membranes prepared from transiently transfected BHK tk'ts 13 cells (Assay VIII); also called rCTR; rCT
# T1 sequence (looked up): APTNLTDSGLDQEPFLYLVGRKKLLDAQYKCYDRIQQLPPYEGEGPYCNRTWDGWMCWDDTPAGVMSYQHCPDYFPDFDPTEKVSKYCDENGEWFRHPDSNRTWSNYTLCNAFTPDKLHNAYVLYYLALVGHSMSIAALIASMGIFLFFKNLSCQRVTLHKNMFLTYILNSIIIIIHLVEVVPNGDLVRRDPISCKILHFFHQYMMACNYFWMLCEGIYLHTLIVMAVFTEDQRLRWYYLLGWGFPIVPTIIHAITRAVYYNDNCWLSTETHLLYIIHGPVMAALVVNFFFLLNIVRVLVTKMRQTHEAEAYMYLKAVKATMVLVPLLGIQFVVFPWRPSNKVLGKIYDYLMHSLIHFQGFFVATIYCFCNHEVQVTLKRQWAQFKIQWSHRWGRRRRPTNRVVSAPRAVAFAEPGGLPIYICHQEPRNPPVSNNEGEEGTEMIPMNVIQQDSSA
# T2: human calcitonin receptor (human, UniProt P30988 25-474)
# T2 construct: whole, on cells; Membranes prepared from a stably transfected BHK cell line (Assay VII); also called hCTR; hCT
# T2 sequence (looked up): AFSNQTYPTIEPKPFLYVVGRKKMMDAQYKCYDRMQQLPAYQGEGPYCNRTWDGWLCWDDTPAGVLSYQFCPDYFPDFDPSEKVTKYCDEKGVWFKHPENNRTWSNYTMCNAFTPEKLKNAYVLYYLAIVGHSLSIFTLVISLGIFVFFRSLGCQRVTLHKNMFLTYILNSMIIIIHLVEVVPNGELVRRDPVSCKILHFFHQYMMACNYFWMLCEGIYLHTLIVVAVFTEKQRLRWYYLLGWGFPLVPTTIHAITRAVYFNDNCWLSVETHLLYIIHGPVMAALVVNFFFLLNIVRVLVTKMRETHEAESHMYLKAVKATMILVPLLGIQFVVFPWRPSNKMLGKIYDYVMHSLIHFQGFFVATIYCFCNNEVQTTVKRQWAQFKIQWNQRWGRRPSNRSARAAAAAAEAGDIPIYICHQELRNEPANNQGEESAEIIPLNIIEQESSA
# T3: rat amylin receptor (rat calcitonin receptor + rat RAMP 3) (rat, UniProt P32214 25-516; Q9JJ73 23-147)
# T3 construct: whole, on cells; Membranes prepared from transiently transfected BHK tk'ts 13 cells (Assay VI); also called rAmylin-R; rAmylin
# T3 sequence (looked up) 1: T1 sequence (looked up)
# T3 sequence (looked up) 2: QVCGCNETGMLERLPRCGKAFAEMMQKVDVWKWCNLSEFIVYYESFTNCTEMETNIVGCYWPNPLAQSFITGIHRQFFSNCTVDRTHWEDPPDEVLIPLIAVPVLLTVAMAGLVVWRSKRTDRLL
# B1: N^ε1-[2-[2-[2-[[(4S)-4-carboxy-4-(19-carboxynonadecanoylamino)butanoyl]amino]ethoxy]ethoxy]acetyl]-[Arg17,Pro21,Pro27,Pro28,Pro34]-h-amylin (peptide)
# peptide: K([AEEA-γGlu-C20 diacid])CNTATCATQRLANFLRHSSPNFGAIPPSTNVGPNTY-NH2
# modifications: disulfide 2-7; N-terminus assumed
# SMILES: CC[C@H](C)[C@H](NC(=O)[C@H](C)NC(=O)CNC(=O)[C@H](Cc1ccccc1)NC(=O)[C@H](CC(N)=O)NC(=O)[C@@H]1CCCN1C(=O)[C@H](CO)NC(=O)[C@H](CO)NC(=O)[C@H](Cc1c[nH]cn1)NC(=O)[C@H](CCCNC(=N)N)NC(=O)[C@H](CC(C)C)NC(=O)[C@H](Cc1ccccc1)NC(=O)[C@H](CC(N)=O)NC(=O)[C@H](C)NC(=O)[C@H](CC(C)C)NC(=O)[C@H](CCCNC(=N)N)NC(=O)[C@H](CCC(N)=O)NC(=O)[C@@H](NC(=O)[C@H](C)NC(=O)[C@@H]1CSSC[C@H](NC(=O)[C@@H](N)CCCCNC(=O)COCCOCCNC(=O)CC[C@H](NC(=O)CCCCCCCCCCCCCCCCCCC(=O)O)C(=O)O)C(=O)N[C@@H](CC(N)=O)C(=O)N[C@@H]([C@@H](C)O)C(=O)N[C@@H](C)C(=O)N[C@@H]([C@@H](C)O)C(=O)N1)[C@@H](C)O)C(=O)N1CCC[C@H]1C(=O)N1CCC[C@H]1C(=O)N[C@@H](CO)C(=O)N[C@H](C(=O)N[C@@H](CC(N)=O)C(=O)N[C@H](C(=O)NCC(=O)N1CCC[C@H]1C(=O)N[C@@H](CC(N)=O)C(=O)N[C@H](C(=O)N[C@@H](Cc1ccc(O)cc1)C(N)=O)[C@@H](C)O)C(C)C)[C@@H](C)O
# notes: Analogue of human amylin; also called compound 55
# B2: N^ε1-[2-[2-[2-[[(4S)-4-carboxy-4-(19-carboxynonadecanoylamino)butanoyl]amino]ethoxy]ethoxy]acetyl]-[Arg17,Pro21,Pro27,Pro34,His35]-h-amylin (peptide)
# peptide: K([AEEA-γGlu-C20 diacid])CNTATCATQRLANFLRHSSPNFGAIPSSTNVGPHTY-NH2
# modifications: disulfide 2-7; N-terminus assumed
# SMILES: CC[C@H](C)[C@H](NC(=O)[C@H](C)NC(=O)CNC(=O)[C@H](Cc1ccccc1)NC(=O)[C@H](CC(N)=O)NC(=O)[C@@H]1CCCN1C(=O)[C@H](CO)NC(=O)[C@H](CO)NC(=O)[C@H](Cc1c[nH]cn1)NC(=O)[C@H](CCCNC(=N)N)NC(=O)[C@H](CC(C)C)NC(=O)[C@H](Cc1ccccc1)NC(=O)[C@H](CC(N)=O)NC(=O)[C@H](C)NC(=O)[C@H](CC(C)C)NC(=O)[C@H](CCCNC(=N)N)NC(=O)[C@H](CCC(N)=O)NC(=O)[C@@H](NC(=O)[C@H](C)NC(=O)[C@@H]1CSSC[C@H](NC(=O)[C@@H](N)CCCCNC(=O)COCCOCCNC(=O)CC[C@H](NC(=O)CCCCCCCCCCCCCCCCCCC(=O)O)C(=O)O)C(=O)N[C@@H](CC(N)=O)C(=O)N[C@@H]([C@@H](C)O)C(=O)N[C@@H](C)C(=O)N[C@@H]([C@@H](C)O)C(=O)N1)[C@@H](C)O)C(=O)N1CCC[C@H]1C(=O)N[C@@H](CO)C(=O)N[C@@H](CO)C(=O)N[C@H](C(=O)N[C@@H](CC(N)=O)C(=O)N[C@H](C(=O)NCC(=O)N1CCC[C@H]1C(=O)N[C@@H](Cc1c[nH]cn1)C(=O)N[C@H](C(=O)N[C@@H](Cc1ccc(O)cc1)C(N)=O)[C@@H](C)O)C(C)C)[C@@H](C)O
# notes: Analogue of human amylin; also called compound 58
# B3: N^ε1-[2-[2-[2-[[(4S)-4-carboxy-4-(19-carboxynonadecanoylamino)butanoyl]amino]ethoxy]ethoxy]acetyl]-[Arg17,Pro21,Pro27,Pro31,His35]-h-amylin (peptide)
# peptide: K([AEEA-γGlu-C20 diacid])CNTATCATQRLANFLRHSSPNFGAIPSSTPVGSHTY-NH2
# modifications: disulfide 2-7; N-terminus assumed
# SMILES: CC[C@H](C)[C@H](NC(=O)[C@H](C)NC(=O)CNC(=O)[C@H](Cc1ccccc1)NC(=O)[C@H](CC(N)=O)NC(=O)[C@@H]1CCCN1C(=O)[C@H](CO)NC(=O)[C@H](CO)NC(=O)[C@H](Cc1c[nH]cn1)NC(=O)[C@H](CCCNC(=N)N)NC(=O)[C@H](CC(C)C)NC(=O)[C@H](Cc1ccccc1)NC(=O)[C@H](CC(N)=O)NC(=O)[C@H](C)NC(=O)[C@H](CC(C)C)NC(=O)[C@H](CCCNC(=N)N)NC(=O)[C@H](CCC(N)=O)NC(=O)[C@@H](NC(=O)[C@H](C)NC(=O)[C@@H]1CSSC[C@H](NC(=O)[C@@H](N)CCCCNC(=O)COCCOCCNC(=O)CC[C@H](NC(=O)CCCCCCCCCCCCCCCCCCC(=O)O)C(=O)O)C(=O)N[C@@H](CC(N)=O)C(=O)N[C@@H]([C@@H](C)O)C(=O)N[C@@H](C)C(=O)N[C@@H]([C@@H](C)O)C(=O)N1)[C@@H](C)O)C(=O)N1CCC[C@H]1C(=O)N[C@@H](CO)C(=O)N[C@@H](CO)C(=O)N[C@H](C(=O)N1CCC[C@H]1C(=O)N[C@H](C(=O)NCC(=O)N[C@@H](CO)C(=O)N[C@@H](Cc1c[nH]cn1)C(=O)N[C@H](C(=O)N[C@@H](Cc1ccc(O)cc1)C(N)=O)[C@@H](C)O)C(C)C)[C@@H](C)O
# notes: Analogue of human amylin; also called compound 57
# B4: N^ε1-[2-[2-[2-[[(4S)-4-carboxy-4-(19-carboxynonadecanoylamino)butanoyl]amino]ethoxy]ethoxy]acetyl]-[Arg17,Pro21,Pro27,Pro29,Pro34]-h-amylin (peptide)
# peptide: K([AEEA-γGlu-C20 diacid])CNTATCATQRLANFLRHSSPNFGAIPSPTNVGPNTY-NH2
# modifications: disulfide 2-7; N-terminus assumed
# SMILES: CC[C@H](C)[C@H](NC(=O)[C@H](C)NC(=O)CNC(=O)[C@H](Cc1ccccc1)NC(=O)[C@H](CC(N)=O)NC(=O)[C@@H]1CCCN1C(=O)[C@H](CO)NC(=O)[C@H](CO)NC(=O)[C@H](Cc1c[nH]cn1)NC(=O)[C@H](CCCNC(=N)N)NC(=O)[C@H](CC(C)C)NC(=O)[C@H](Cc1ccccc1)NC(=O)[C@H](CC(N)=O)NC(=O)[C@H](C)NC(=O)[C@H](CC(C)C)NC(=O)[C@H](CCCNC(=N)N)NC(=O)[C@H](CCC(N)=O)NC(=O)[C@@H](NC(=O)[C@H](C)NC(=O)[C@@H]1CSSC[C@H](NC(=O)[C@@H](N)CCCCNC(=O)COCCOCCNC(=O)CC[C@H](NC(=O)CCCCCCCCCCCCCCCCCCC(=O)O)C(=O)O)C(=O)N[C@@H](CC(N)=O)C(=O)N[C@@H]([C@@H](C)O)C(=O)N[C@@H](C)C(=O)N[C@@H]([C@@H](C)O)C(=O)N1)[C@@H](C)O)C(=O)N1CCC[C@H]1C(=O)N[C@@H](CO)C(=O)N1CCC[C@H]1C(=O)N[C@H](C(=O)N[C@@H](CC(N)=O)C(=O)N[C@H](C(=O)NCC(=O)N1CCC[C@H]1C(=O)N[C@@H](CC(N)=O)C(=O)N[C@H](C(=O)N[C@@H](Cc1ccc(O)cc1)C(N)=O)[C@@H](C)O)C(C)C)[C@@H](C)O
# notes: Analogue of human amylin; also called compound 56
# B5: N^ε1-[2-[2-[2-[[(4S)-4-carboxy-4-(19-carboxynonadecanoylamino)butanoyl]amino]ethoxy]ethoxy]acetyl]-[Arg17,Pro21,Pro27,Pro29,Pro31]-h-amylin (peptide)
# peptide: K([AEEA-γGlu-C20 diacid])CNTATCATQRLANFLRHSSPNFGAIPSPTPVGSNTY-NH2
# modifications: disulfide 2-7; N-terminus assumed
# SMILES: CC[C@H](C)[C@H](NC(=O)[C@H](C)NC(=O)CNC(=O)[C@H](Cc1ccccc1)NC(=O)[C@H](CC(N)=O)NC(=O)[C@@H]1CCCN1C(=O)[C@H](CO)NC(=O)[C@H](CO)NC(=O)[C@H](Cc1c[nH]cn1)NC(=O)[C@H](CCCNC(=N)N)NC(=O)[C@H](CC(C)C)NC(=O)[C@H](Cc1ccccc1)NC(=O)[C@H](CC(N)=O)NC(=O)[C@H](C)NC(=O)[C@H](CC(C)C)NC(=O)[C@H](CCCNC(=N)N)NC(=O)[C@H](CCC(N)=O)NC(=O)[C@@H](NC(=O)[C@H](C)NC(=O)[C@@H]1CSSC[C@H](NC(=O)[C@@H](N)CCCCNC(=O)COCCOCCNC(=O)CC[C@H](NC(=O)CCCCCCCCCCCCCCCCCCC(=O)O)C(=O)O)C(=O)N[C@@H](CC(N)=O)C(=O)N[C@@H]([C@@H](C)O)C(=O)N[C@@H](C)C(=O)N[C@@H]([C@@H](C)O)C(=O)N1)[C@@H](C)O)C(=O)N1CCC[C@H]1C(=O)N[C@@H](CO)C(=O)N1CCC[C@H]1C(=O)N[C@H](C(=O)N1CCC[C@H]1C(=O)N[C@H](C(=O)NCC(=O)N[C@@H](CO)C(=O)N[C@@H](CC(N)=O)C(=O)N[C@H](C(=O)N[C@@H](Cc1ccc(O)cc1)C(N)=O)[C@@H](C)O)C(C)C)[C@@H](C)O
# notes: Analogue of human amylin; also called compound 54
# Molecular target: T1, rat calcitonin receptor
# Experiment: ratio of binding IC50s: rat calcitonin receptor / rat amylin receptor (reference)
row,Ratio rCT/rAmylin binding,Binder
1,77.2,B1
2,76.6,B2
3,135,B3
4,131,B4
5,179,B5

# Molecular target: T2, human calcitonin receptor
# Experiment: ratio of binding IC50s: human calcitonin receptor / human amylin receptor (reference)
# Summary of the method: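 Competition binding by SPA uses membrane preparations (35 ng/μL final) in pH 7.4 Hepes buffer with 1 mM CaCl2 and 5 mM MgCl₂. Incubation lasts 120 min at 25° C, and IC₅₀ comes from one-site fitting.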
row,Ratio hCT/hAmylin binding,Binder
1,51.8,B1
2,109,B2
3,133,B3
4,42.6,B4
5,146,B5

# Molecular target: T1, rat calcitonin receptor
# Experiment: SPA competition vs 125I-calcitonin, membranes of BHK cells with rat calcitonin receptor (Assay VIII)
row,IC50 [nM],Binder
1,6.25,B1
2,10.3,B2
3,24.4,B3
4,5.26,B4
5,8.79,B5

# Molecular target: T3, rat amylin receptor (rat calcitonin …)
# Experiment: SPA competition vs 125I-rat amylin, membranes of BHK cells with rat calcitonin receptor + rat RAMP3 (Assay VI)
row,IC50 [nM],Binder
1,0.081,B1
2,0.135,B2
3,0.181,B3
4,0.04,B4
5,0.049,B5
